According to PMC7801617, “Cancer associated talin point mutations disorganise cell adhesion and migration” (Scientific Reports, 2021):
No end group written: not given here.

Columns and labels:
[1] = biological target: the molecule itself; assay: SEC-MALS; 100 μM protein, room temperature, Superdex 75 column; Viscotek SEC–MALS 9 and RI detector; dimer or monomer
[2] = biological target: T1, talin-1 R7–R8 fragment, wildtype (residues 1355–1652) (mouse, UniProt P26039 1355-1652); assay: fluorescence polarisation; R7–R8 protein serially diluted from 60 µM with KANK1 (30–68) peptide at 1 µM, and from 75 µM with RIAM (4–30) peptide at 1 µM; 20 °C; CLARIOstar plate reader; one-site total binding equation; settings: both partners purified
T1 construct: talin-1, mouse, R7–R8 domains, residues 1355–1652, made from full-length mouse talin-1 as template; also called R7–R8 WT; Wildtype R7–R8; source: E. coli BL21 (DE3), purified (HisTrap HP, HiTrap Q HP anion exchange)

[3] = biological target: T2, talin-1 R7–R8 fragment (residues 1355–1652) with mutation Y1389C (mouse, UniProt P26039 1355-1652, Y1389C); assay: as above; settings: both partners purified
T2 construct: talin-1, mouse, R7–R8 domains, residues 1355–1652, with Y1389C; The mutation is a somatic mutation of human cancers (COSMIC), put into the mouse talin-1 fragment by site-directed mutagenesis; also called R7–R8 Y1389C; source: E. coli BL21 (DE3), purified (HisTrap HP, HiTrap Q HP anion exchange)

[4] = biological target: T3, talin-1 R7–R8 fragment (residues 1355–1652) with mutation R1368W (mouse, UniProt P26039 1355-1652, R1368W); assay: as above; settings: both partners purified
T3 construct: talin-1, mouse, R7–R8 domains, residues 1355–1652, with R1368W; The mutation is a somatic mutation of human cancers (COSMIC; also in the 1000 Genomes database), put into the mouse talin-1 fragment by site-directed mutagenesis; also called R7–R8 R1368W; source: E. coli BL21 (DE3), purified (HisTrap HP, HiTrap Q HP anion exchange)

[5] = biological target: T1, talin-1 R7–R8 fragment, wildtype …; assay: SEC; Vd1 and talin R7–R8 incubated at a 2:1 ratio at a concentration of 100 µM, analysed at room temperature; elution fractions on SDS-PAGE; settings: both partners purified
[6] = biological target: T2, talin-1 R7–R8 fragment (residues …); assay: as above; settings: both partners purified
[7] = biological target: T3, talin-1 R7–R8 fragment (residues …); assay: as above; settings: both partners purified

T3 sequence (P26039 1355-1652 R1368W): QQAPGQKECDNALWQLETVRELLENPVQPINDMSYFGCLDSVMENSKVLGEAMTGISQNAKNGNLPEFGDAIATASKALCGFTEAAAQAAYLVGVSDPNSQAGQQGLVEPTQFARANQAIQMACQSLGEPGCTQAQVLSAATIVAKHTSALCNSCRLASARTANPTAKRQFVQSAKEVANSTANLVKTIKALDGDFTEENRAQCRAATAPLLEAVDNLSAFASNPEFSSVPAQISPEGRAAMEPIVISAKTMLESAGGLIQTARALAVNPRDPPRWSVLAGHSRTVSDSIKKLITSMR
T2 sequence (P26039 1355-1652 Y1389C): as the sequence (P26039 1355-1652 R1368W) above, with W14R, Y35C counted along it
T1 sequence (P26039 1355-1652): as the sequence (P26039 1355-1652 R1368W) above, with W14R counted along it

B1: talin-1 R13–DD fragment, wildtype (residues 2300–2541) (domain or fragment, mouse, UniProt P26039 2300-2541, looked up)
chain: DPTVIAENELLGAAAAIEAAAKKLEQLKPRAKPKEADESLNFEEQILEAAKSIAAATSALVKAASAAQRELVAQGKVGAIPANALDDGQWSQGLISAARMVAAATNNLCEAANAAVQGHASQEKLISSAKQVAASTAQLLVACKVKADQDSEAMKRLQAAGNAVKRASDNLVKAAQKAAAFEDQENETVVVKEKMVGGIAQIIAAQEEMLRKERELEEARKKLAQIRQQQYKFLPSELRDEH
notes: talin-1, mouse, R13 and dimerisation domain (DD), residues 2300–2541; Constitutive dimer by SEC–MALS; also called R13–DD WT; Talin R13–DD wildtype; source: E. coli BL21 (DE3), purified (HisTrap HP, HiTrap Q HP anion exchange)
- stoichiometry N [1]: 2

B2: RIAM (4–30) peptide (peptide)
peptide: SEDIDQMFSTLLGEMDLLTQSLGVDTC
modifications: also: BODIPY or Fluorescein dye coupled via C-terminal Cys
notes: RIAM, mouse, printed as residues 4–30; added C-terminal cysteine for coupling of the dye; also called RIAM peptide; LD-motif of RIAM; source: synthetic peptide (GLBiochem, China)
- binding result [2]: binds
- binding result [3]: binds
- binding result [4]: binds

B3: vinculin Vd1 domain (residues 1–258) (domain or fragment, UniProt P12003 1-258, looked up)
chain: MPVFHTRTIESILEPVAQQISHLVIMHEEGEVDGKAIPDLTAPVSAVQAAVSNLVRVGKETVQTTEDQILKRDMPPAFIKVENACTKLVRAAQMLQADPYSVPARDYLIDGSRGILSGTSDLLLTFDEAEVRKIIRVCKGILEYLTVAEVVETMEDLVTYTKNLGPGMTKMAKMIDERQQELTHQEHRVMLVNSMNTVKELLPVLISAMKIFVTTKNTKSQGIEEALKNRNFTVEKMSAEINEIIRVLQLTSWDEDAW
notes: vinculin, Vd1 domain, residues 1–258
- stoichiometry N [5]: 1
- stoichiometry N [6]: 2
- stoichiometry N [7]: 1
